The source of these data is the Human Domainome abundance scans (Beltran et al. 2025).

± gives the uncertainty stated by the source.

The labels stand for the following.
B1: Histone H1t, residues 44 to 112; numbered along this chain, P22492 (parent)
chain: VSKLITEALSVSQERVGMSLVALKKALAAAGYDVEKNNSRIKLSLKSLVNKGILVQTRGTGASGSFKLS

The variants in the series derive from B1. The series can be described thus: abundance fitness (aPCA) (normalised: wild type 0, dead -1); higher = more abundant; growth selection in yeast, the domain comes from the species named. The note with it: Homo sapiens.
VSKLITEALSVSQERVGMSLVALKKALAAAGYDVEKINSRIKLSLKSLVNKGILVQTRGTGASGSFKLS: the abundance fitness was 0.148 ± 0.16.

Turning to VSKLITEALSVSQERVGMSLVALKKALAAAGYDVEKGNSRIKLSLKSLVNKGILVQTRGTGASGSFKLS, the abundance fitness was -0.091 ± 0.12.

With VSKLITEALSVSQERVGMSLVALKKALAAAGYDVEKHNSRIKLSLKSLVNKGILVQTRGTGASGSFKLS, the abundance fitness amounted to 0.093 ± 0.24.

On to VSKLITEALSVSQERVGMSLVALKKALAAAGYDVEKMNSRIKLSLKSLVNKGILVQTRGTGASGSFKLS, for which the abundance fitness is -0.45 ± 0.28.

For the variant VSKLITEALSVSQERVGMSLVALKKALAAAGYDVEKDNSRIKLSLKSLVNKGILVQTRGTGASGSFKLS, the abundance fitness is -0.397 ± 0.24.

In the case of VSKLITEALSVSQERVGMSLVALKKALAAAGYDVEKRNSRIKLSLKSLVNKGILVQTRGTGASGSFKLS, the abundance fitness is 0.077 ± 0.18.

For VSKLITEALSVSQERVGMSLVALKKALAAAGYDVEKPNSRIKLSLKSLVNKGILVQTRGTGASGSFKLS, the abundance fitness was -0.173 ± 0.28.

With VSKLITEALSVSQERVGMSLVALKKALAAAGYDVEKLNSRIKLSLKSLVNKGILVQTRGTGASGSFKLS, the abundance fitness is -0.061 ± 0.11.

In the case of VSKLITEALSVSQERVGMSLVALKKALAAAGYDVEKANSRIKLSLKSLVNKGILVQTRGTGASGSFKLS, the abundance fitness came to 0.244 ± 0.36.

In the case of VSKLITEALSVSQERVGMSLVALKKALAAAGYDVEKFNSRIKLSLKSLVNKGILVQTRGTGASGSFKLS, the abundance fitness is -0.178 ± 0.29.

As to VSKLITEALSVSQERVGMSLVALKKALAAAGYDVMKNNSRIKLSLKSLVNKGILVQTRGTGASGSFKLS, the abundance fitness was -0.157 ± 0.038.

Consider VSKLITEALSVSQERVGMSLVALKKALAAAGYDVPKNNSRIKLSLKSLVNKGILVQTRGTGASGSFKLS, for which the abundance fitness was -0.31 ± 0.034.

Turning to VSKLITEALSVSQERVGMSLVALKKALAAAGYDVYKNNSRIKLSLKSLVNKGILVQTRGTGASGSFKLS, the abundance fitness is -0.036 ± 0.065.

VSKLITEALSVSQERVGMSLVALKKALAAAGYDVFKNNSRIKLSLKSLVNKGILVQTRGTGASGSFKLS: the abundance fitness is -0.307 ± 0.047.

On to VSKLITEALSVSQERVGMSLVALKKALAAAGYDVSKNNSRIKLSLKSLVNKGILVQTRGTGASGSFKLS, for which the abundance fitness was -0.134 ± 0.032.

On to VSKLITEALSVSQERVGMSLVALKKALAAAGYDVQKNNSRIKLSLKSLVNKGILVQTRGTGASGSFKLS, for which the abundance fitness was -0.084 ± 0.04.

Regarding VSKLITEALSVSQERVGMSLVALKKALAAAGYDVTKNNSRIKLSLKSLVNKGILVQTRGTGASGSFKLS, the abundance fitness was -0.061 ± 0.038.

In the case of VSKLITEALSVSQERVGMSLVALKKALAAAGYDVKKNNSRIKLSLKSLVNKGILVQTRGTGASGSFKLS, the abundance fitness came to 0.05 ± 0.053.

As for VSKLITEALSVSQERVGMSLVALKKALAAAGYDVIKNNSRIKLSLKSLVNKGILVQTRGTGASGSFKLS, the abundance fitness is -0.123 ± 0.059.

Consider VSKLITEALSVSQERVGMSLVALKKALAAAGYDVNKNNSRIKLSLKSLVNKGILVQTRGTGASGSFKLS, for which the abundance fitness is -0.064 ± 0.092.

In the case of VSKLITEALSVSQERVGMSLVALKKALAAAGYDVHKNNSRIKLSLKSLVNKGILVQTRGTGASGSFKLS, the abundance fitness is -0.137 ± 0.06.

As for VSKLITEALSVSQERVGMSLVALKKALAAAGYDVENNNSRIKLSLKSLVNKGILVQTRGTGASGSFKLS, the abundance fitness is -0.019 ± 0.11.

Take VSKLITEALSVSQERVGMSLVALKKALAAAGYDVEINNSRIKLSLKSLVNKGILVQTRGTGASGSFKLS: the abundance fitness was -0.628 ± 0.13.

VSKLITEALSVSQERVGMSLVALKKALAAAGYDVEHNNSRIKLSLKSLVNKGILVQTRGTGASGSFKLS: the abundance fitness was -0.432 ± 0.073.

Turning to VSKLITEALSVSQERVGMSLVALKKALAAAGYDVEANNSRIKLSLKSLVNKGILVQTRGTGASGSFKLS, the abundance fitness is -0.106 ± 0.047.

As for VSKLITEALSVSQERVGMSLVALKKALAAAGYDVELNNSRIKLSLKSLVNKGILVQTRGTGASGSFKLS, the abundance fitness is -0.358 ± 0.04.

Regarding VSKLITEALSVSQERVGMSLVALKKALAAAGYDVEVNNSRIKLSLKSLVNKGILVQTRGTGASGSFKLS, the abundance fitness was -0.46 ± 0.053.

Regarding VSKLITEALSVSQERVGMSLVALKKALAAAGYDVETNNSRIKLSLKSLVNKGILVQTRGTGASGSFKLS, the abundance fitness was -0.323 ± 0.048.

On to VSKLITEALSVSQERVGMSLVALKKALAAAGYDVEWNNSRIKLSLKSLVNKGILVQTRGTGASGSFKLS, for which the abundance fitness was -0.626 ± 0.055.

Take VSKLITEALSVSQERVGMSLVALKKALAAAGYDVESNNSRIKLSLKSLVNKGILVQTRGTGASGSFKLS: the abundance fitness is -0.25 ± 0.038.

Consider VSKLITEALSVSQERVGMSLVALKKALAAAGYDVEQNNSRIKLSLKSLVNKGILVQTRGTGASGSFKLS, for which the abundance fitness was -0.152 ± 0.044.

Regarding VSKLITEALSVSQERVGMSLVALKKALAAAGYDVECNNSRIKLSLKSLVNKGILVQTRGTGASGSFKLS, the abundance fitness is -0.556 ± 0.07.

Regarding VSKLITEALSVSQERVGMSLVALKKALAAAGYDVEPNNSRIKLSLKSLVNKGILVQTRGTGASGSFKLS, the abundance fitness is -0.62 ± 0.046.

Turning to VSKLITEALSVSQERVGMSLVALKKALAAAGYDVEGNNSRIKLSLKSLVNKGILVQTRGTGASGSFKLS, the abundance fitness was -0.251 ± 0.047.

As to VSKLITEALSVSQERVGMSLVALKKALAAAGYDVEENNSRIKLSLKSLVNKGILVQTRGTGASGSFKLS, the abundance fitness was -0.428 ± 0.069.

VSKLITEALSVSQERVGMSLVALKKALAAAGYDVEDNNSRIKLSLKSLVNKGILVQTRGTGASGSFKLS: the abundance fitness was -0.387 ± 0.15.

With VSKLITEALSVSQERVGMSLVALKKALAAAGYDVERNNSRIKLSLKSLVNKGILVQTRGTGASGSFKLS, the abundance fitness is -0.106 ± 0.033.

Turning to VSKLITEALSVSQERVGMSLVALKKALAAAGYDVEYNNSRIKLSLKSLVNKGILVQTRGTGASGSFKLS, the abundance fitness is -0.362 ± 0.092.

As for VSKLITEALSVSQERVGMSLVALKKALAAAGYDVEMNNSRIKLSLKSLVNKGILVQTRGTGASGSFKLS, the abundance fitness is -0.285 ± 0.064.
